According to patent publication US7718410B2, “In vivo incorporation of alkynyl amino acids into proteins in eubacteria” (The Scripps Research Institute, priority 2004, dated 2010):

System: E. coli
Assay: Chloramphenicol resistance conferred by the synthetase (amber suppression in the CAT gene)
Format: cell-based
Procedure: Following mutagenesis, the pool of synthetases was then passed through positive and negative rounds of selection. The positive selection is based on suppression of an amber stop codon at a permissive site (Asp112) in the chloramphenicol acetyltransferase (CAT) gene. When E. coli cells harboring the MjTyrRS mutant library, the mutated CAT gene and a coexpressed Mj amber suppressor tRNACUA were grown on minimal media in the presence of pPRO-Phe (1 mM) and chloramphenicol (80 μg/mL), the only surviving cells are those cells that contain a mutant synthetase that aminoacylates the tRNACUA with either an endogenous amino acid or pPRO-Phe. The synthetase library genes were then transformed into cells containing a mutated gene encoding the toxic protein barnase, which has three amber mutations at permissive sites (Gln2, Asp44, Gly65). The vector carrying the barnase reporter also contained the suppressor tRNA. Growth of these cells in the absence of pPRO-Phe selected against synthetases capable of accepting endogenous amino acids as a substrate. After three rounds of selection, 96 clones were screened for growth rate dependence on the presence or absence of pPRO-Phe, and eight candidate clones were identified and sequenced. The polynucleotide and amino acid sequences of the eight clones is also provided in SEQ ID NOS: 4 through 19. […]

B1: pPRO-PheRS-1: para-propargyloxyphenylalanine aminoacyl-tRNA synthetase isolate-1, derived from wild-type Methanococcus jannaschii tyrosyl tRNA-synthetase (protein)
chain: MDEFEMIKRNTSEIISEEELREVLKKDEKSAAIGFEPSGKIHLGHYLQIKKMIDLQNAGFDIIILLADLHAYLNQKGELDEIRKIGDYNKKVFEAMGLKAKYVYGSPFQFDKDYTLNVYRLALKTTLKRARRSMELIAREDENPKVAEVIYPIMQVNAIHYAGVDVAVGGMEQRKIHMLARELLPKKVVCIHNPVLTGLDGEGKMSSSKGNFIAVDDSPEEIRAKIKKAYCPAGVVEGNPIMEIAKYFLEYPLTIKRPEKFGGDLTVNSYEELESLFKNKELHPMDLKNAVAEELIKILEPIRKRL
modifications: para-propargyloxyphenylalanine aminoacyl-tRNA synthetase derived from M. jannaschii tyrosyl tRNA-synthetase
notes: para-propargyloxyphenylalanine aminoacyl-tRNA synthetase isolate-1, derived from wild-type Methanococcus jannaschii tyrosyl tRNA-synthetase
In the absence of pPRO-Phe
  chloramphenicol resistance on E. coli, IC50: 5 µg/mL
In the presence of pPRO-Phe
  chloramphenicol resistance on E. coli, IC50: 110 µg/mL
